# The supplement of paper PMC10567573
# ± gives the standard deviation.
# Assay: protein stability index of a GFP-peptide fusion (GPS, HEK-293T) (PSI 1-6); higher = more stable
# [1] = treatment: DMSO, c terminus: a fixed tail appended
# [2] = treatment: MLN4924 1 uM, 8 h, c terminus: a fixed tail appended
# [3] = treatment: DMSO, c terminus: native
# [4] = treatment: MLN4924 1 uM, 8 h, c terminus: native
# 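Note: 24-mer peptide tiles fused after GFP, lentivirally expressed, FACS-sorted into six equal bins by GFP/DsRed ratio, decoded by Illumina sequencing, PSI is the read-weighted mean bin number.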
Sequence,protein stability index [1],protein stability index [2],protein stability index [3],protein stability index [4]
TEELTVIKSSLKDEYQYSFWDLFR [SLC2A12],2.38 ± 0.25,2.29 ± 0.35,–,–
TELRRSGSSRSPGSKARAEGRGPV [PLEKHN1],4.84 ± 0.31,4.96 ± 0.52,–,–
TEQAVALLRDRTGQQSDTAQLELY [SCARA5],4.61 ± 0.16,4.42 ± 0.25,–,–
TETPLEGDFAWERVRGLGLPKLYL [CDKN1A],2.18 ± 0.15,2.57 ± 0.34,–,–
TFGAAACSIGFAVRYLNAYTGIVL [POP5],3.18 ± 0.57,3.45 ± 0.15,–,–
TFNRWGTLLAVGCNDGRIVIWDFL [RBBP5],2.35 ± 0.41,2.18 ± 0.27,–,–
TFPASVLAPVPTHSTVSELSRSPV [DUSP5],3.92 ± 0.082,4.14 ± 0.39,–,–
TGESSEPEAKVLHTKRLYRAVVEA [SMG5],3.65 ± 0.33,3.63 ± 0.24,–,–
TGGSADLFGGFADFGSAAASGSFP [CLINT1],3.69 ± 0.35,3.62 ± 0.24,–,–
TGLMVSLLCLLHFSIVSVAAHLAL [RTN2],3.27 ± 0.11,2.87 ± 0.27,–,–
TGMPMMPQQPVMFAQPMMRPPFGA [SNAP91],2.97 ± 0.064,2.67 ± 0.33,–,–
TIGVEFATRSIQVDGKTIKAQIWD [RAB11A],3.04 ± 0.2,3.08 ± 0.32,–,–
TIIFTAAREGRETLKCLSHHVADA [TOR1AIP2],2.42 ± 0.13,2.62 ± 0.2,–,–
TIQQEKLLAEKEEKLQKEQKELQD [SASS6],5.52 ± 0.31,5.54 ± 0.23,–,–
TKKRKLGKNPDVDTSFLPDRDREE [FAM50A],5.18 ± 0.14,5.23 ± 0.41,–,–
TKQRIQDQKVPYIFRDNQWVGFDD [CHIT1],3.49 ± 0.47,3.69 ± 0.4,–,–
TLHNAQTQEPIFTFTASFSGKVFP [TRIM15],2.49 ± 0.23,2.56 ± 0.3,–,–
TLRQKAEADKNDKAVKDLVVLLFE [HSP90AB1],3.07 ± 0.39,3.12 ± 0.27,–,–
TLSFIVDGQYMGVAFRGLKGKKLY [SPSB1],2.27 ± 0.46,2.36 ± 0.36,–,–
TLTELRRTVQSLEIDLDSMRNLKA [KRT18],3 ± 0.5,3.06 ± 0.51,–,–
TLVGNVAQDLGLKMTDLLSRRLQL [PCDHGC5],2.58 ± 0.66,2.6 ± 0.57,–,–
TLYANNVQRVMAQALGIPATECEF [LPCAT4],2.49 ± 0.22,2.58 ± 0.19,–,–

Sequence,protein stability index [1],protein stability index [2],protein stability index [3],protein stability index [4]
TMLSHYRPFYVNKGNGIGSNEAP [TRIM29],–,–,3.1 ± 0.24,3.14 ± 0.25
TMQSMFAKNFHVKAVMKTSVLLSW [PTPRD],2.48 ± 0.73,2.94 ± 0.42,–,–
TPPASPPPSVLISKNEVGIFTTPN [KMT2E],4.03 ± 0.18,4.06 ± 0.1,–,–
TPPPGPASAQPLPAPEAAHTTGPT [TFE3],5.38 ± 0.27,5.38 ± 0.084,–,–
TPVVTESTATSITLTWDSGNPEPV [PTPRD],4.21 ± 0.057,4.16 ± 0.33,–,–
TQDGKEQPELPCAMAMGTPSTTER [PXN],5.21 ± 0.27,5.18 ± 0.3,–,–
TQIPADEDTQTDADSSAQAAAQAP [TAF7L],5.49 ± 0.072,5.51 ± 0.15,–,–
TQPGIRRARDKALSGGKRKETLV [NET1],–,–,4.29 ± 0.3,4.15 ± 0.38
TRRHPGGSRVISHYAGQDATDPFV [FADS1],3.7 ± 0.33,3.86 ± 0.089,–,–
TTTTFPMSNHTRERVTVAKLTLEN [STK38L],3.52 ± 0.26,3.5 ± 0.18,–,–
TTYDRRSSQERKFMEERELLGQDE [RSPH3],5.34 ± 0.2,5.39 ± 0.23,–,–
TWEQTFQELIQEAKPRATWTLKLD [RTP4],2.02 ± 0.24,2.25 ± 0.33,–,–
TWKQELLKLMDRHKKDCAREKPFK [ZNF75A],2.69 ± 0.25,2.88 ± 0.3,–,–
TYLVSERLEREERNQTQVLRQQQD [FAF2],4.97 ± 0.21,4.89 ± 0.072,–,–
TYNTKVYKMFASRRKQRYWPFSMD [LOXL2],2.32 ± 0.51,1.89 ± 0.15,–,–
VAACAQTVVSLAAAGQPTPPTSPE [CEBPD],5 ± 0.78,5.29 ± 0.33,–,–
VAAGRTQKAGVTRSGRLILWEAPP [NEK8],2.85 ± 0.24,2.94 ± 0.24,–,–
VAEAFRALASAQCPQFGIPRKRLK [SPOPL],2.73 ± 0.42,3 ± 0.34,–,–
VAGDCLDEKQCKQCANKVLQHMKA [LRRC59],3.74 ± 0.14,3.9 ± 0.43,–,–
VAGGVAVAAIALILGVAFLVRKK [CEND1],–,–,4.02 ± 0.29,4.16 ± 0.097
VAKKTPTKRSTLIISGVSKVPIAQ [C2CD2L],3.02 ± 0.33,3.24 ± 0.33,–,–
VCQALAQVDGGANFSVDRWERKEG [CPOX],4.41 ± 0.14,4.1 ± 0.43,–,–
